In doi:10.1101/2021.02.22.432209 (bioRxiv, 2021) one finds Kd data, which are given here for 4 molecules.

B1: GST-PreScission-p62 FIR 4P (domain or fragment)
chain: MESDNCSGGDDDWTHLSSKEVDPETGELQSLQMPESEGPEELDPEQEGPTGLKEA
B2: GABARAP (1-117), His8-TEV-GABARAP (natural protein)
chain: MKFVYKEEHPFEKRRSEGEKIRKKYPDRVPVIVEKAPKARIGDLDKKKYLVPSDLTVGQFYFLIRKRIHLRAEDALFFFVNNVIPPTSATMGQLYQEHHEEDFFLYIAYSDESVYGL

What all share (assay): SPR
In assay [1] the target is B2.
In assay [2] the target is B2. This is another data set of the same source.
The target in assay [3] is LC3B (1-125), His8-TEV-LC3B (human, UniProt Q9GZQ8 1-120).
Assay [4] concerns the target T1, Biotinylated FLCN-8xGlycine-AviTag/FNIP2 (human, UniProt Q8NFG4;Q9P278, biotin on the AviTag).
Assay [5] concerns the target T1, Biotinylated FLCN-8xGlycine-AviTag/FNIP2. This is another data set of the same source.

Like-named read-outs stand apart in the source and are kept apart here.

With GSKIITALEKGEVEESEYVVITVRNEP [FNIP2 peptide 550-576, wild type (Long)], the dissociation constant Kd in assay [1] was found to be 29 ± 2 nM.
As to B1, the Kd was found to be 670 ± 80 nM in assay [2] and 820 ± 40 nM in assay [3].
Consider B2, for which the Kd was 0.071 ± 0.01 nM in assay [4] and 0.3 ± 0.018 nM in assay [5].
For the molecule EKGEVEESEYVVITVRNEP [FNIP2 peptide 558-576, wild type (Short)], the dissociation constant Kd in assay [1] was 6200 ± 3000 nM.

One may read the Kd as the constant that tells how readily two partners part at equilibrium.
